Publication doi:10.1101/2021.09.24.461759

Biological target: pre-fusion, protease-resistant, trimeric transmembrane (TM)-deleted spike (S) glycoprotein from SARS-CoV-2 (SARS-CoV-2 (Wuhan-Hu-1) | not stated)
Assay: SEC + other: SDS-PAGE

Question: How did the stoichiometry N turn out when “pre-fusion, protease-resistant, trimeric transmembrane (TM)-deleted spike (S) glycoprotein from SARS-CoV-2” was run?
Answer: The stoichiometry N was 3.
